From patent US20190015519A1, “MMP-SENSITIVE TAXANE PRODRUG” (Incanthera Ltd, priority 2015, published 2019) come the findings set out here.

Series [1] deals with PC3 xenografts. The experiment in a line: Anti-tumour efficacy study in PC3 xenografts. The following applies: PC3-bearing mice; single dose; ICT3205 20 mg/kg, paclitaxel 7 mg/kg (molar equivalent). The format is in vivo, mouse.
Series [2] can be described thus: Metabolism in LNCaP prostate cancer cell line. The format is in vitro ADME.
A short description of series [3]: ALL Taxol Compounds (1uM) PC3 Vs Liver Vs HT1080 Metabolism. On the procedure: Table printed on a drawing sheet, Fig. 7 (Cont.)
Title: ALL Taxol Compounds (1uM) PC3 Vs Liver Vs HT1080 Metabolism
(§1) Footnotes: [diagonal hatching] Tumour (51-100%) / Liver (0-15%) / [horizontal hatching] Tumour & Liver (26-50%) / [cross hatching] Tumour (0-25%) / Liver (51-100%)
First reader's note: Continuation of Fig. 7; cell hatching classifies the values per the legend, and the title states 1uM while the head row states 1mM.

Series [4] is described as follows: Incubation with PC3 tumour homogenate (tumour activation). Format: in vitro ADME. An excerpt:
A paclitaxel (Taxol) standard is shown in the top trace,
(§2) The relative importance of individual amino acids within the MT-MMP peptide recognition sequence has been investigated following extensive ex vivo metabolic studies. These studies employed tissue homogenates to assess activation of prodrug conjugates in tumour (PC-3) tissues and stability in normal tissues (liver kidney lung).

The test system of series [5] is prostate tumour-associated MT-MMPs. The experiment in a line: Incubation in tissue culture media containing prostate tumour cells. The following applies: incubation at 20 um in tissue culture media with cells; compared to other agents tested. Format: cell-based.
A short description of series [6]: Top 3 Taxol Compounds (20uM) PC3 Vs LNCaP (x2) Vs PNT2 Cell-based assay. On the procedure:
Table printed on a drawing sheet, Fig. 9 (Cont.)
Title: Top 3 Taxol Compounds (20uM) PC3 Vs LNCaP (x2) Vs PNT2 Cell-based assay
Footnotes: [diagonal hatching] Tumour (51-100%) / Non-Tumour (0-15%) / [horizontal hatching] Tumour & Non-Tumour (26-50%) / [cross hatching] Tumour (0-25%) / Non-Tumour (51-100%)
First reader's note: Continuation of Fig. 9; cell shading (hatching) classifies the values by the legend, and all compounds were tested at 20uM in cell culture.

Series [7] can be described thus: Systemic toxicity by mouse body weight. Format: in vivo. The following applies: mice.
Series [8] has as its target MMP 15 (Homo sapiens, UniProt P51511). The experiment in a line: Cleavage by recombinant MMP15 in vitro (HPLC traces). Format: biochemical. The following applies: over 18 h.
Series [9] in a line: ALL Taxol Compounds (10uM) PC3 Vs Liver Vs HT1080 Metabolism. On the procedure: Table printed on a drawing sheet, Fig. 8 (Cont.)
Title: ALL Taxol Compounds (10uM) PC3 Vs Liver Vs HT1080 Metabolism
as §1
First reader's note: Continuation of Fig. 8; the title prints 10uM while the head row prints 10mM, and cell hatching marks the classes given in the legend.

Series [10] can be described thus: Incubation with normal tissue homogenates (normal tissue stability). Format: in vitro ADME. The protocol:
Parent molecules are incubated with tissue homogenate and half lives calculated Green indicates acceptable whereas red is unacceptable.
as §2

The target of series [11] is MMP14 (Homo sapiens, UniProt P50281). The experiment in a line: Cleavage by recombinant MMP14 in vitro (HPLC traces, mass spectrometry). The following applies: over 18 h. Format: biochemical.
Series [12] is described as follows: In vivo murine pharmacokinetic study monitoring paclitaxel release in tumour, tissues and plasma. An excerpt: The early peak drug concentrations associated with paclitaxel dosing are removed by administration of prodrug. A 10-fold increase in tumour concentration of paclitaxel is observed following administration as ICT3205.
FIG. 21 provides a table highlighting in greater detail the disparity of distribution between normal tissues and tumour tissues for paclitaxel alone, parent ICT3205 and paclitaxel release from the prodrug.

Series [13] can be described thus: ALL Taxol Compounds (1uM) (ALL Tissue Metabolism). On the procedure: Table printed on a drawing sheet, Fig. 11
Title: ALL Taxol Compounds (1uM) (ALL Tissue Metabolism)
Footnotes: Tumour (51-100%) / Liver (0-15%) / Tumour & Liver (26-50%) / Tumour (0-25%) / Liver (51-100%)
First reader's note: Cell hatching codes the classes given in the legend; all compounds tested at 1uM in tissue homogenates.

The nature of series [14]: PK study (PC3) ICT3205 - 15mg/kg (5mg/kg taxol) IP Almost undetectable concentrations of ICT3205 in tumour. The protocol: Table printed on a drawing sheet, Fig. 21
Title: PK study (PC3) ICT3205 - 15mg/kg (5mg/kg taxol) IP Almost undetectable concentrations of ICT3205 in tumour
Footnotes: Tumour AUC ↑ x10-fold Tumour Cmax ↑ x10-fold } For ACTIVE Taxol / ALSO Tissue AUC ↓ Tissue Cmax ↓ x10-fold } For ACTIVE Taxol
The patent's description of the figure: FIG. 21 provides a table highlighting in greater detail the disparity of distribution between normal tissues and tumour tissues for paclitaxel alone, parent ICT3205 and paclitaxel release from the prodrug.
First reader's note: The ratio cells span the three analyte rows of each tissue and are repeated in each row; the first PC3 row is printed as 'ICT2305' (boxed) and has its own empty Cmax Ratio cell.

Values joined by “and” are separate entries in the source; they are usually repeats but may differ in a detail not shown here. Equal values may be shown once. “Also recorded” adds a separate entry of the source.

Sequence of MMP 15 (P51511 132-669): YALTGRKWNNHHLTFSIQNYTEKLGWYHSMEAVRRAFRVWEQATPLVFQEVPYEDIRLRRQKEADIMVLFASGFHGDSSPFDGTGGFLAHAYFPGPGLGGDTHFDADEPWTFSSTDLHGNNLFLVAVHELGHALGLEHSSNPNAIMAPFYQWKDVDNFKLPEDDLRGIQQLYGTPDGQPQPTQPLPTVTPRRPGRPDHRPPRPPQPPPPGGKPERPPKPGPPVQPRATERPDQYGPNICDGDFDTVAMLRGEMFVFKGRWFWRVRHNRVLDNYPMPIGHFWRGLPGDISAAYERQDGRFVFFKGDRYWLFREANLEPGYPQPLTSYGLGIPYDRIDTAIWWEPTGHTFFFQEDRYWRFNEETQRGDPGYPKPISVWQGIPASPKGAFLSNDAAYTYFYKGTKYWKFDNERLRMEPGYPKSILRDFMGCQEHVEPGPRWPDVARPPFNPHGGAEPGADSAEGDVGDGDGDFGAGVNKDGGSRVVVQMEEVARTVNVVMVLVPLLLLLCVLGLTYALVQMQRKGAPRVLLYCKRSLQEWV

In general, Tmax refers to the time at which the peak concentration occurs. For `CC(=O)O[C@H]1C(=O)[C@@]2(C)C([C@H](OC(=O)c3ccccc3)[C@]3(O)C[C@H](OC(=O)[C@H](OC(=O)OCc4ccc(NC(=O)[C@H](CC(C)C)NC(=O)[C@H](Cc5ccc(O)cc5)NC(=O)[C@H](CCc5ccccc5)NC(=O)CNC(=O)[C@H](CCCNC(N)=O)NC(=O)[C@H](CO)NC(=O)[C@H](CCCNC(=N)N)NC(=O)CCNC(=S)Nc5ccc6c(c5)C(=O)OC65c6ccc(O)cc6Oc6cc(O)ccc65)cc4)[C@@H](NC(=O)c4ccccc4)c4ccccc4)C(C)=C1C3(C)C)[C@]1(OC(C)=O)CO[C@@H]1C[C@@H]2O` (some centres unmarked) [ICT3205], the “anti-tumour effect (growth delay)” value in [1] was “highly significant growth delay; also recorded: superior anti-tumour effects”. Moreover, in series [2], the “metabolism of conjugate in LNCaP” value is given as “metabolised equally quickly”. Moreover, in series [3], the “Tissue Homogenate Metabolism (1 µM) | HT1080 Stability (% loss)” value is 60 % loss, the “Tissue Homogenate Metabolism (1 µM) | HT1080 Taxol Release (% gain)” value worked out at 58 % gain, the “Tissue Homogenate Metabolism (1 µM) | Liver Stability (% loss)” value is given as 12 % loss and the “Tissue Homogenate Metabolism (1 µM) | Liver Taxol Release (% gain)” value is given as 19 % gain. Also, in [3], the “Tissue Homogenate Metabolism (1 µM) | PC3 Stability (% loss)” value was determined as 77 % loss and the “Tissue Homogenate Metabolism (1 µM) | PC3 Taxol Release (% gain)” value is 85 % gain. Moreover, the “metabolism (disappearance, activation) of conjugate in PC3” value in series [4] (PC3 prostate cancer cell line homogenate) is on record as “disappearance; also recorded: metabolised equally quickly; also recorded: metabolised rapidly”. Besides, the “paclitaxel release in PC3 tumour” value in series [4] (PC3 tumour homogenate) is listed as “differential release of free paclitaxel; also recorded: appearance of paclitaxel”. In addition, in series [5], the “cleavage by prostate tumour-associated MT-MMPs and release of paclitaxel” value is listed as “superior cleavage”. Further, in [6], the “Cell Culture Metabolism (20uM) | LNCaP (2) Taxol Release (% gain)” value came to 81 % gain, the “Cell Culture Metabolism (20uM) | LNCaP Stability (% loss)” value turned out to be 100 % loss, the “Cell Culture Metabolism (20uM) | LNCaP Taxol Release (% gain)” value is listed as 73 % gain and the “Cell Culture Metabolism (20uM) | PC3 Stability (% loss)” value is on record as 84 % loss. Besides, in series [6], the “Cell Culture Metabolism (20uM) | PC3 Taxol Release (% gain)” value is listed as 49 % gain, the “Cell Culture Metabolism (20uM) | PNT2 Stability (% loss)” value was found to be 21 % loss and the “Cell Culture Metabolism (20uM) | PNT2 Taxol Release (% gain)” value came to 12 % gain. The “toxicity and adverse systemic effects as indicated by mouse body weight” value in series [7] is “no toxicity and no adverse systemic effects”. Moreover, in series [8], the “cleavage by recombinant MMP 15” value is given as “cleavage”. In series [9], the “Tissue Homogenate Metabolism (10 µM) | HT1080 Stability (% loss)” value worked out at 48 % loss, the “Tissue Homogenate Metabolism (10 µM) | HT1080 Taxol Release (% gain)” value turned out to be 55 % gain, the “Tissue Homogenate Metabolism (10 µM) | Liver Stability (% loss)” value is 12 % loss and the “Tissue Homogenate Metabolism (10 µM) | Liver Taxol Release (% gain)” value is given as 21 % gain. Further, in [9], the “Tissue Homogenate Metabolism (10 µM) | PC3 Stability (% loss)” value came to 54 % loss and the “Tissue Homogenate Metabolism (10 µM) | PC3 Taxol Release (% gain)” value amounted to 60 % gain. Besides, the “stability in kidney and liver homogenates” value in [10] (kidney and liver, over other molecules) is given as “marked increased stability”. Further, in series [10] (liver homogenate), the “appearance of paclitaxel in liver homogenate” value is recorded as “not in the liver” and the “conjugate stability in liver homogenate” value was “relative stability”. In [10] (liver, kidney, lung), the “stability in normal tissue homogenates” value was “stable; also recorded: long in vitro ‘half-life’ and stability”. In addition, the “cleavage by recombinant MMP14” value in series [11] was “cleavage”. The “levels of paclitaxel released from ICT3205 in heart” value in series [12] (heart) is less than 500 nM. The “AUC ratio of paclitaxel released from ICT3205 compared to paclitaxel administered alone, normal tissues” value in series [12] (normal tissues, AUC in uM.h, ICT3205 20 mg/kg vs paclitaxel 7 mg/kg) is on record as 0.05-0.99. For the same compound, the “Cmax ratio of paclitaxel released from ICT3205 vs paclitaxel alone, other tissues” value in [12] (other tissues, ICT3205 20 mg/kg vs paclitaxel 7 mg/kg) is on record as 0.02-0.19. Further, in series [12] (plasma), the “levels of paclitaxel released from ICT3205 in plasma” value is “below detectable levels”. The “AUC ratio of paclitaxel released from ICT3205 compared to paclitaxel administered alone, tumour” value in series [12] (tumour, AUC in uM.h, ICT3205 20 mg/kg vs paclitaxel 7 mg/kg) is listed as 16.2. Further, the “Cmax ratio of paclitaxel released from ICT3205 vs paclitaxel alone, tumour” value in [12] (tumour, ICT3205 20 mg/kg vs paclitaxel 7 mg/kg) was 9.77. Besides, the “increase in tumour concentration of paclitaxel following administration as ICT3205” value in series [12] (tumour, versus equimolar paclitaxel alone) was found to be 10 fold. Besides, in series [13], the “Tissue Homogenate Metabolism (1uM) | Kidney Stability (% loss)” value was determined as 4 % loss, the “Tissue Homogenate Metabolism (1uM) | Kidney Taxol Release (% gain)” value is 4 % gain, the “Tissue Homogenate Metabolism (1uM) | Lung Stability (% loss)” value worked out at 19 % loss and the “Tissue Homogenate Metabolism (1uM) | Lung Taxol Release (% gain)” value was 12 % gain. In addition, in series [14], the “Tmax” value was 4 h and 2 h.

In the case of `CC(=O)O[C@H]1C(=O)[C@@]2(C)[C@H]([C@H](OC(=O)c3ccccc3)[C@]3(O)C[C@H](OC(=O)[C@H](O)[C@@H](NC(=O)c4ccccc4)c4ccccc4)C(C)=C1C3(C)C)[C@]1(OC(C)=O)CO[C@@H]1C[C@@H]2O` [paclitaxel, Paclitaxel, reference compound], in series [1], the “anti-tumour effect (growth delay)” value was “no significant anti-tumour effect; also recorded: no efficacy”.

Consider MeO (PEG) [ICT3200], for which, in [3], the “Tissue Homogenate Metabolism (1 µM) | HT1080 Stability (% loss)” value amounted to 72 % loss, the “Tissue Homogenate Metabolism (1 µM) | HT1080 Taxol Release (% gain)” value turned out to be 29 % gain, the “Tissue Homogenate Metabolism (1 µM) | Liver Stability (% loss)” value was 5 % loss and the “Tissue Homogenate Metabolism (1 µM) | Liver Taxol Release (% gain)” value came to 5 % gain. Besides, in series [3], the “Tissue Homogenate Metabolism (1 µM) | PC3 Stability (% loss)” value was found to be 82 % loss and the “Tissue Homogenate Metabolism (1 µM) | PC3 Taxol Release (% gain)” value is on record as 36 % gain. In series [6], the “Cell Culture Metabolism (20uM) | LNCaP (2) Stability (% loss)” value is 62 % loss, the “Cell Culture Metabolism (20uM) | LNCaP (2) Taxol Release (% gain)” value is given as 51 % gain, the “Cell Culture Metabolism (20uM) | LNCaP Stability (% loss)” value came out at 61 % loss and the “Cell Culture Metabolism (20uM) | LNCaP Taxol Release (% gain)” value was determined as 62 % gain. In series [6], the “Cell Culture Metabolism (20uM) | PC3 Stability (% loss)” value was 89 % loss, the “Cell Culture Metabolism (20uM) | PC3 Taxol Release (% gain)” value is reported as 49 % gain, the “Cell Culture Metabolism (20uM) | PNT2 Stability (% loss)” value is 60 % loss and the “Cell Culture Metabolism (20uM) | PNT2 Taxol Release (% gain)” value amounted to 22 % gain. For the same compound, in series [9], the “Tissue Homogenate Metabolism (10 µM) | HT1080 Stability (% loss)” value is given as 61 % loss, the “Tissue Homogenate Metabolism (10 µM) | HT1080 Taxol Release (% gain)” value was 30 % gain, the “Tissue Homogenate Metabolism (10 µM) | Liver Stability (% loss)” value stood at 0 % loss and the “Tissue Homogenate Metabolism (10 µM) | Liver Taxol Release (% gain)” value amounted to 8 % gain. For the same compound, in series [9], the “Tissue Homogenate Metabolism (10 µM) | PC3 Stability (% loss)” value stood at 80 % loss and the “Tissue Homogenate Metabolism (10 µM) | PC3 Taxol Release (% gain)” value turned out to be 36 % gain. Further, in series [13], the “Tissue Homogenate Metabolism (1uM) | Kidney Stability (% loss)” value is listed as 32 % loss, the “Tissue Homogenate Metabolism (1uM) | Kidney Taxol Release (% gain)” value was found to be 25 % gain, the “Tissue Homogenate Metabolism (1uM) | Lung Stability (% loss)” value was found to be 64 % loss and the “Tissue Homogenate Metabolism (1uM) | Lung Taxol Release (% gain)” value was found to be 31 % gain.
